Usually stoichiometry N stands for the number of molecules, sites or subunits per partner or assembly.

These results are taken from paper PMC3266953 (Scientific Reports, 2012).

The data set concerns the molecule itself. Put plainly: crystal structure.

B1: NcdG347D, truncated dimeric protein (MGSM-H293-K700) (domain or fragment)
chain: MGSMHAALSTEVVHLRQRTEELLRCNEQQAAELETCKEQLFQSNMERKELHNTVMDLRDNIRVFCRIRPPLESEENRMCCTWTYHDESTVELQSIDAQAKSKMGQQIFSFDQVFHPLSSQSDIFEMVSPLIQSALDGYNICIFAYGQTGSGKTYTMDGVPESVGVIPRTVDLLFDSIRGYRNLGWEYEIKATFLEIYNEVLYDLLSNEQKDMEIRMAKNNKNDIYVSNITEETVLDPNHLRHLMHTAKMNRATASTAGNERSSRSHAVTKLELIGRHAEKQEISVGSINLVDLAGSESPKTSTRMTETKNINRSLSELTNVILALLQKQDHIPYRNSKLTHLLMPSLGGNSKTLMFINVSPFQDCFQESVKSLRFAASVNSCKMTKAKRNRYLNNSVANSSTQSNNSGSFDK
Take B1: the “stoichiometry N” value was determined as 2.
